Measured values from US20240261333A1 (published 2024).

How the values were obtained:
Test in all cases: co-IP, anti-FLAG, lysate of cells with N-FLAG B3GNT2; mass spectrometry
[1] = biological target: T1, HNRNPA2B1 (human, UniProt P22626-2 1-341)
T1 construct: also called NP_002128.1 (+1)
Procedure: (§1) Cells were plated in 10-cm cell culture dishes and grown to 60-80% confluency. For each condition, two biological replicates were harvested for co-IP. Cells were washed with PBS and 4 mL of lysis buffer (20 mM HEPES, 1% Triton X-100, 150 mM NaCl, 1 mM EDTA, and 10% glycerol) containing protease inhibitor cocktail was added. Cells were scraped and lysate was incubated at 4° C. under rotary agitation for 1 h. Lysate was centrifuged at 14,000×g for 10 min at 4° C. Supernatant was transferred to a new tube and an aliquot was taken as the input. […] For Western blots, 10 μg/mL Chicken Anti-FLAG (Aves labs ET-DY100) and IgY control (R&D Systems AB-101-C) antibodies were biotinylated (Thermo Fisher Scientific 90407) and added to the respective conditions. Lysates with antibodies were incubated at 4° C. under rotary agitation overnight. For each mL of lysate, 50 μL of Pierce Protein A/G Magnetic Beads (Mass spectrometry; Thermo Fisher Scientific 88803) or Pierce Streptavidin Magnetic Beads (Western blot; Thermo Fisher Scientific 88817) was washed twice with lysis buffer. Lysates with antibodies were added to the beads and incubated at 4° C. under rotary agitation for 4 h. Beads were washed with lysis buffer 3 times and resuspended in lysis buffer for storage.
(§2) Magnetic beads were resuspended in 100 mM Tris pH 7.8, reduced, alkylated and digested with trypsin at 37° ° C. overnight. This solution was subjected to solid phase extraction to concentrate the peptides and remove unwanted reagents followed by injection onto a Shimadzu HPLC with fraction collector. Eight fractions were collected and after concentration were injected on a Waters NanoAcquity HPLC equipped with a self-packed Aeris 3 μm C18 analytical column 0.075 mm by 20 cm, (Phenomenex). Peptides were eluted using standard reverse-phase gradients. The effluent from the column was analyzed using a Thermo Orbitrap Elite mass spectrometer (nanospray configuration) operated in a data dependent manner for 54 minutes. The resulting fragmentation spectra were correlated against the known database using Proteome Discover 1.4 (Thermo Fisher Scientific).

[2] = biological target: RPL4 (human, UniProt P36578 2-427)
Procedure: as §1, §2

[3] = biological target: T2, KRT4 (human, UniProt P19013 1-520)
T2 construct: also called NP_002263.3
Procedure: as §1, §2

[4] = biological target: T3, PARP1 (human, UniProt P09874 2-1014)
T3 construct: also called NP_001609.2
Procedure: as §1, §2

[5] = biological target: T4, HNRNPK (human, UniProt P61978-3 1-440, limits assumed)
T4 construct: also called NP_001305115.1 (+1)
Procedure: as §1, §2

[6] = biological target: T5, PUM1 (human, UniProt Q14671-3 2-1188, limits assumed)
T5 construct: also called NP_00108494.1 (+1)
T5 sequence (looked up): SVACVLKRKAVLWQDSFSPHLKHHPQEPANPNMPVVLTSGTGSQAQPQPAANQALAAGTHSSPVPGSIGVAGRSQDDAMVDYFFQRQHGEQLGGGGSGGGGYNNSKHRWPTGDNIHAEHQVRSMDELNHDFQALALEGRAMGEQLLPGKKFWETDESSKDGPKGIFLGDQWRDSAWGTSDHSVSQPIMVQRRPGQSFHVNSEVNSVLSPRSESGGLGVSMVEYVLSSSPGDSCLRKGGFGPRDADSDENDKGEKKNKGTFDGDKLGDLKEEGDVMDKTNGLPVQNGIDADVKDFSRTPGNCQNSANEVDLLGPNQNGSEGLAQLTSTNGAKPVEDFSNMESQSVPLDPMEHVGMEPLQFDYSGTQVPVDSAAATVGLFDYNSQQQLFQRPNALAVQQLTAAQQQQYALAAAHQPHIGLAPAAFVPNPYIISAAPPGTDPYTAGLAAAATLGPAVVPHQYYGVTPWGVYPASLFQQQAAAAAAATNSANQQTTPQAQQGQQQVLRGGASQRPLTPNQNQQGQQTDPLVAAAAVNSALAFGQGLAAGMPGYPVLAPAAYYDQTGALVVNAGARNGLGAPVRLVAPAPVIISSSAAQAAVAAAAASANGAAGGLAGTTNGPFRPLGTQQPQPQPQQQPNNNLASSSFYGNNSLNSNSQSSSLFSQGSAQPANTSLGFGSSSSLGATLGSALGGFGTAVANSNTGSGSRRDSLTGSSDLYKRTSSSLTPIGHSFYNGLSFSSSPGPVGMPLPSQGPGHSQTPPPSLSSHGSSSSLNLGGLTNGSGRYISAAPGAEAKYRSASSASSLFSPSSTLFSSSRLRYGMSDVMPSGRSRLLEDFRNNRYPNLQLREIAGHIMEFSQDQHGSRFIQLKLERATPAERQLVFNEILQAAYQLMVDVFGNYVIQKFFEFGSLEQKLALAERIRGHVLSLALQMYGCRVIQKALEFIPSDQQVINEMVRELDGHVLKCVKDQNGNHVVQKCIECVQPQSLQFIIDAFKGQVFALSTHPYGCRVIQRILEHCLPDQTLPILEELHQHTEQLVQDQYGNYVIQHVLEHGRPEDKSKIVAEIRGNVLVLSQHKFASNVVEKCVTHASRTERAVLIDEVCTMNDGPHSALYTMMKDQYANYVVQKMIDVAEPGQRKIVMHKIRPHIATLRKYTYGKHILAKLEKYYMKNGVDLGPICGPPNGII
Procedure: as §1, §2

[7] = biological target: RPS28 (human, UniProt P62857 1-69)
Procedure: as §1, §2

[8] = biological target: FAU (human, UniProt P62861 75-133)
Procedure: as §1, §2

[9] = biological target: RPL10 (human, UniProt P27635 2-214)
Procedure: as §1, §2

[10] = biological target: T6, PRRC2A (human, UniProt P48634 1-2157)
T6 construct: also called NP_004629.3 (+1)
Procedure: as §1, §2

T3 sequence (P09874 2-1014 limits assumed): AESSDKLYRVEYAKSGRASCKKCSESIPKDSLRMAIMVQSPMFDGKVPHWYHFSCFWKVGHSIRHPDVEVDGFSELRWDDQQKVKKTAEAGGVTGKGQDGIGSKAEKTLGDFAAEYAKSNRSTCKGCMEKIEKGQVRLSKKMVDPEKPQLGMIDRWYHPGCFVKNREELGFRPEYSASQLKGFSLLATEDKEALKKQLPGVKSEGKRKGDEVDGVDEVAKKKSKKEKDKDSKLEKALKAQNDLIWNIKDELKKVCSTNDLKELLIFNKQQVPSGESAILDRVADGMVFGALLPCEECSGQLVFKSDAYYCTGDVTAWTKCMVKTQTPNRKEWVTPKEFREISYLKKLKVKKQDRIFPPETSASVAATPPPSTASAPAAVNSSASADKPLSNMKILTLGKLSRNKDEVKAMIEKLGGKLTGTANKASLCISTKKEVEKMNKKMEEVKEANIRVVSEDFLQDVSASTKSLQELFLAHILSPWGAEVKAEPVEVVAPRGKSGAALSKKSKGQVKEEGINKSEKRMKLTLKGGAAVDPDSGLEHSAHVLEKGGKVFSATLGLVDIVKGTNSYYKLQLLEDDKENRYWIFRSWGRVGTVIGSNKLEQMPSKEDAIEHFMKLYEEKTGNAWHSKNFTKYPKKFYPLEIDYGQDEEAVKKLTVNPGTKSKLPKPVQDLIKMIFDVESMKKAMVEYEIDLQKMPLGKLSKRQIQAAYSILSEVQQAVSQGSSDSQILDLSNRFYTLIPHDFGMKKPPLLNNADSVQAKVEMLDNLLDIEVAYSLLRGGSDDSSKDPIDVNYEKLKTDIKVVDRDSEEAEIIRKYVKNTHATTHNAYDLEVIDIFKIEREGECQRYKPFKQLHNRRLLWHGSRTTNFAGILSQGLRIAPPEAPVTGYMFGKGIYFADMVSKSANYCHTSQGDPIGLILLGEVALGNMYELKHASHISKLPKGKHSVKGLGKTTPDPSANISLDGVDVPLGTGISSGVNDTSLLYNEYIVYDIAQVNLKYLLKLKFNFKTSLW
T1 sequence (P22626 other isoform, or with tags, fused parts or gaps limits assumed): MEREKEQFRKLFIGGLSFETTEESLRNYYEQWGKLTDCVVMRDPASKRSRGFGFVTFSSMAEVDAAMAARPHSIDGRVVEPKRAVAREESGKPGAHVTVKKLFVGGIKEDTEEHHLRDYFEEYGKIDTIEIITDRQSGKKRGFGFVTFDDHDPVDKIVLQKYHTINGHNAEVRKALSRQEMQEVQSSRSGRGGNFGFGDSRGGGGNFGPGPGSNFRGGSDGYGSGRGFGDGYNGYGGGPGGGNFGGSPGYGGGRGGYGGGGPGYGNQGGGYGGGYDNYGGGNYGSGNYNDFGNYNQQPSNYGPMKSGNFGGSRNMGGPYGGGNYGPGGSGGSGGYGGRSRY
T4 sequence (P61978 other isoform, or with tags, fused parts or gaps limits assumed): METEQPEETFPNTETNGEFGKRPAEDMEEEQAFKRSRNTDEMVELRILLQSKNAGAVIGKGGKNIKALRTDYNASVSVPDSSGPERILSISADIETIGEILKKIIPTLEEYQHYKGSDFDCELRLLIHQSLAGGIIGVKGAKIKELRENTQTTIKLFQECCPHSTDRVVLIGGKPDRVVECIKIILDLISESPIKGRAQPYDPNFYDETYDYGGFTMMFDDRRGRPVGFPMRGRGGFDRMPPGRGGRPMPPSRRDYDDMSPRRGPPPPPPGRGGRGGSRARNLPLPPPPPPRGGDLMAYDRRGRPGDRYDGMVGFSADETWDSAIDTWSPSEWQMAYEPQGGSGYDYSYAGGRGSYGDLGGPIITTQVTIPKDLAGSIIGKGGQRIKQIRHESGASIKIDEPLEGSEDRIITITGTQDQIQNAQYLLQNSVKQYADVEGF
T2 sequence (P19013 whole entry): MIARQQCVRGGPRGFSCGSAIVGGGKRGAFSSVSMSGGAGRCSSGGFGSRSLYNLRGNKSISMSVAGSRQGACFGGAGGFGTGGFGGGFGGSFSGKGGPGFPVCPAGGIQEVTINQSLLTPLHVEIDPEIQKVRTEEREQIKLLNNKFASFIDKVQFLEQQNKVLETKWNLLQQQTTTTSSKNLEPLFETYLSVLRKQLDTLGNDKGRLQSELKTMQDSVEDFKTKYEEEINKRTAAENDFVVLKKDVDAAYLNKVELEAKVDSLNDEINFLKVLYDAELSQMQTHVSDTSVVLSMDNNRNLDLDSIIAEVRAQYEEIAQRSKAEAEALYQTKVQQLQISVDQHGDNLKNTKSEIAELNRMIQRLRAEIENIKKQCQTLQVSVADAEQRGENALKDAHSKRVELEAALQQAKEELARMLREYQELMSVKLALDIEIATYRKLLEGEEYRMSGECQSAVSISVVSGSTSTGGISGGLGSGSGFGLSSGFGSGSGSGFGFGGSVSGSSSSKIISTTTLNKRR
T6 sequence (P48634 whole entry): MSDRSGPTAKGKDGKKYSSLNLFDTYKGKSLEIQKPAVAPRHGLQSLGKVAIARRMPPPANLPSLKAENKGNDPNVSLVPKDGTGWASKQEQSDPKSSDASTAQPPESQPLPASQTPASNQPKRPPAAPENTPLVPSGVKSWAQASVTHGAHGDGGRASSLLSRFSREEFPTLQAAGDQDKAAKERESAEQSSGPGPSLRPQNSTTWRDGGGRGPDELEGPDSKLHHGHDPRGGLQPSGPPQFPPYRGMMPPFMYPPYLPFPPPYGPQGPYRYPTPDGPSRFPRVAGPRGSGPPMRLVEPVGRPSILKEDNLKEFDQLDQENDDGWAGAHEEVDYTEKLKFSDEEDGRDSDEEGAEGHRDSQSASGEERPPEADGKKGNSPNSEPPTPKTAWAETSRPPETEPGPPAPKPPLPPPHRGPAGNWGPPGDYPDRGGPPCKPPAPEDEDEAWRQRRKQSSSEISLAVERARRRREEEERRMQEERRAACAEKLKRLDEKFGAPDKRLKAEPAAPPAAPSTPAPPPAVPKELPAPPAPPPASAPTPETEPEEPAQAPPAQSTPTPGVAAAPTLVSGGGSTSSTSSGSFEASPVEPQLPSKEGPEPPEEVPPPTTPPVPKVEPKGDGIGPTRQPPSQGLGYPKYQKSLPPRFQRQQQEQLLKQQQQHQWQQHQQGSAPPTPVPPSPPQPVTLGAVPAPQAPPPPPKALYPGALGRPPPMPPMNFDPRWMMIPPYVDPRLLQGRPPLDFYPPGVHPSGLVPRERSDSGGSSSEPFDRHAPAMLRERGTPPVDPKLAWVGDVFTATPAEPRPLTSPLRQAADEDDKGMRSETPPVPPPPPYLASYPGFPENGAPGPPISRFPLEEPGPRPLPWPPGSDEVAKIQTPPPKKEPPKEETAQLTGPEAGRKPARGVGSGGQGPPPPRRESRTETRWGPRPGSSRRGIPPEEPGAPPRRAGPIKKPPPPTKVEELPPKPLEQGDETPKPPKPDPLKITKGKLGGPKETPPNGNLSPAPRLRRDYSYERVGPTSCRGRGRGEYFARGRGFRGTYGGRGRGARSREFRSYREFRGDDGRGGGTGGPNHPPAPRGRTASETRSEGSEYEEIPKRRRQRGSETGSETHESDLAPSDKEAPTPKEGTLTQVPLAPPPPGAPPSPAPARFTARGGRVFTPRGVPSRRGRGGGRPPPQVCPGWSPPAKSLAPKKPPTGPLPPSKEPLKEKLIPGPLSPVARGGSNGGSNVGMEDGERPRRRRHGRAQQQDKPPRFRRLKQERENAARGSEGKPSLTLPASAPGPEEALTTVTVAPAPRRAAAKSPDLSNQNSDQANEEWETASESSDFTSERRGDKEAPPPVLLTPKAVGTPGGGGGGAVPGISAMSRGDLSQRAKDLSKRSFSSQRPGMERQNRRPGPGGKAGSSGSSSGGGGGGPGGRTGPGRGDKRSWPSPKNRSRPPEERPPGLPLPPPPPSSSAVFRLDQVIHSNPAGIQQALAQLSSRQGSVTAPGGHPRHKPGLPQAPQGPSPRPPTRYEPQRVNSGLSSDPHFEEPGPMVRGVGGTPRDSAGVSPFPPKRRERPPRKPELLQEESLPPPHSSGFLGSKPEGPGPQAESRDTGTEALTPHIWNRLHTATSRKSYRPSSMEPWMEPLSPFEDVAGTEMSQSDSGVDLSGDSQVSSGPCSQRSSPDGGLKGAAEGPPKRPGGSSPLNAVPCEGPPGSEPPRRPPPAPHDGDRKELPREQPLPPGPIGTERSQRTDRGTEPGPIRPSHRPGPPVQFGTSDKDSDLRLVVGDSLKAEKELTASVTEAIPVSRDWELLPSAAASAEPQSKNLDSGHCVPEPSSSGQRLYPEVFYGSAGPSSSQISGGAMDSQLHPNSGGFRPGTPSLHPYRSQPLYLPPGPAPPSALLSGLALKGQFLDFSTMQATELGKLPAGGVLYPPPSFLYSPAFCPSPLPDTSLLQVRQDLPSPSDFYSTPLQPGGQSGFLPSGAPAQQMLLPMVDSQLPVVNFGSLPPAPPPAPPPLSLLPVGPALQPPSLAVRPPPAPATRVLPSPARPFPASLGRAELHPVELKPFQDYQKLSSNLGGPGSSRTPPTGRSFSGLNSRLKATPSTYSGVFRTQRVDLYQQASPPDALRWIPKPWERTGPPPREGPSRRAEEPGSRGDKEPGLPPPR

co-IP mass spectrometry count [1]: 7 | co-IP mass spectrometry count [2]: 15 | co-IP mass spectrometry count [3]: 22 | co-IP mass spectrometry count [4]: 0 | co-IP mass spectrometry count [5]: 9 | co-IP mass spectrometry count [6]: 0 | co-IP mass spectrometry count [7]: 0 | co-IP mass spectrometry count [8]: 5 | co-IP mass spectrometry count [9]: 4 | co-IP mass spectrometry count [10]: 2
B1: N-terminal FLAG tagged B3GNT2 (enzyme, human, UniProt Q9NY97 1-397, looked up)
chain: MSVGRRRIKLLGILMMANVFIYFIMEVSKSSSQEKNGKGEVIIPKEKFWKISTPPEAYWNREQEKLNRQYNPILSMLTNQTGEAGRLSNISHLNYCEPDLRVTSVVTGFNNLPDRFKDFLLYLRCRNYSLLIDQPDKCAKKPFLLLAIKSLTPHFARRQAIRESWGQESNAGNQTVVRVFLLGQTPPEDNHPDLSDMLKFESEKHQDILMWNYRDTFFNLSLKEVLFLRWVSTSCPDTEFVFKGDDDVFVNTHHILNYLNSLSKTKAKDLFIGDVIHNAGPHRDKKLKYYIPEVVYSGLYPPYAGGGGFLYSGHLALRLYHITDQVHLYPIDDVYTGMCLQKLGLVPEKHKGFRTFDIEEKNKNNICSYVDLMLVHSRKPQEMIDIWSQLQSAHLKC
notes: Overexpressed in cells and pulled down from the lysate with mouse anti-FLAG antibody; also called N-FLAG B3GNT2; N-term FLAG; not shown: N-terminal FLAG tag
